We go through two molecules from US20170101472A1 (Regeneron, published 2017).

Experiment [1] concerns the target T1, cynomolgus LAG3 on activated CD4+ and CD8+ cynomolgus T cells (cynomolgus).
T1 chain: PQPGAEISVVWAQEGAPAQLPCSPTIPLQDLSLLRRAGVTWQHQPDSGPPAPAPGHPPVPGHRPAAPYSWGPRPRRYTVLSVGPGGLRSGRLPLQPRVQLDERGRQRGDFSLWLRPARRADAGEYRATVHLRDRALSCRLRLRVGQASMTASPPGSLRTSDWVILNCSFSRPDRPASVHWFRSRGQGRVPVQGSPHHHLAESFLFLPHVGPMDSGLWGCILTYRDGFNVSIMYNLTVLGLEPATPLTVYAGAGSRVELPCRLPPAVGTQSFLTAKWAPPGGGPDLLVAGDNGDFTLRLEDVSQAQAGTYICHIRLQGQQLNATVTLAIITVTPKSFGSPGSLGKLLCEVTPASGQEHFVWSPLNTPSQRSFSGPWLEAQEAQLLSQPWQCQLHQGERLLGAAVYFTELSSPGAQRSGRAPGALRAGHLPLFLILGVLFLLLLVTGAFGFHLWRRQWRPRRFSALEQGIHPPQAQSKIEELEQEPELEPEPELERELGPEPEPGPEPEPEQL
Briefly: FACS, stimulated cynomolgus CD4+ T cells, donor 2. As for the experimental part:
(§1) Next, stimulated cynomolgus T-cells from each donor, as described above, were stained with LIVE/DEAD dye (Molecular Probes) to distinguish between live and dead cells via FACS. Subsequently, cells were co-incubated with PE-conjugated anti-CD8 and FITC-conjugated anti-CD4 for 15 min on ice to enable the detection of CD4 and CD8 positive and negative cell populations.
(§2) Next, the serially diluted antibodies were directly labeled using Zenon Alexa-Fluor 647 (Molecular Probes) and incubated with the cynomolgus CD4+/CD8+ T-cell suspension for 15-30 min on ice. Cells were centrifuged and pellets washed with staining buffer to remove unbound antibodies and fixed for 12 h with a 1:1 dilution of Cytofix (BD Biosciences) and staining buffer. Following the incubation period, fixation buffer was removed and pellets were resuspended in staining buffer, filtered, and used for fluorescence measurements.
(§3) Fluorescence measurements were acquired on the Fortessa (Becton Dickinson) and data analyzed in FlowJo to determine the mean fluorescence intensities (MFI). EC₅₀ values were calculated from a four-parameter logistic equation over an 11-point response curve using GraphPad Prism.
(In general: A flow cytometer gives signals particle by particle.)

The target of experiment [2] is T2, monkey LAG3 (mfLAG3) expressed on HEK293 cells (cynomolgus monkey, UniProt P18627 24-525 (human entry)).
T2 construct: also called HEK293/mfLAG3; HEK293-mfLAG3
T2 chain: T1 chain
Put plainly: flow cytometry, HEK293/mfLAG3 cells; FACS on HEK293/mfLAG3 cells; MFI ratio 100 nM/0 nM. As for the experimental part:
(§4) The serially diluted antibodies were added to the cell suspension and incubated for 15-30 minutes on ice. The cells were centrifuged and pellets were washed with staining buffer to remove unbound antibodies. […] The cells were centrifuged and pellets were washed with staining buffer to remove unbound secondary F(ab′)2 and fixed overnight with a 1:1 dilution of Cytofix (BD Biosciences, #554655) and staining buffer. Following day, fixed cells were centrifuged and pellets were washed with staining buffer, resuspended and filtered. Fluorescence measurements were acquired on HyperCyt® cytometer and analyzed in ForeCyt™ (IntelliCyt; Albuquerque, N. Mex.) to determine the mean fluorescence intensities (MFI). The EC₅₀ values were calculated from a four-parameter logistic equation over an 11-point response curve using GraphPad Prism. EC₅₀ was defined as the concentration of antibody at which 50% of maximal binding signal is detected. The MFI ratio for each antibody was calculated by dividing the MFI at 100 nM by MFI at 0 nM of antibody concentration.

The target in experiment [3] is T1, cynomolgus LAG3 on activated CD4+ and …. Briefly: FACS, stimulated cynomolgus CD4+ T cells, donor 1. Here is the method:
as §1, §2, §3

For experiment [4] the target is unchanged. Put plainly: FACS, stimulated cynomolgus CD8+ T cells, donor 1. As for the experimental part:
as §1, §2, §3

Experiment [5] concerns the target T2, monkey LAG3 (mfLAG3) expressed on …. Briefly: flow cytometry, HEK293/mfLAG3 cells; FACS on HEK293/mfLAG3 cells. Here is the method:
as §4

For experiment [6], the target named is T1, cynomolgus LAG3 on activated CD4+ and …. Put plainly: FACS, stimulated cynomolgus CD8+ T cells, donor 2. As for the experimental part:
as §1, §2, §3

The EC50 is the concentration that produces a half-maximal response.

B1: H4sH14813N (antibody, human IgG4 S228P, kappa, V domains shown)
VH: QVQLQQWGAGLLKPSETLSLTCAVYGGSFSGYYWNWIRQPPGKGLEWVGEISHRGSTNYNPSLKSRVTISLDTSKNQFSLKLTSVTAADTAVYYCSRDEELEFRFFDYWGQGTLVTVSS
VL: EIVLTQSPATLSLSPGERATLSCRASQSVSSYLAWYQQKPGQAPRLLVYGASNRATGIPARFSGSGSGTDFTLTISSLEPEDFAFYYCQQRSNWPLTFGGGTKVEIKR
notes: H4sH = modified human IgG4 Fc
Turning to B1, the EC50 turned out to be 0.22 nM in experiment [1]; 0.42 nM in experiment [3]; 0.085 nM in experiment [4]; 1.57 nM in experiment [5]; 0.11 nM in experiment [6]. Also, the “Ratio of MFI (11 nM/0 nM)” value is 1.5 in experiment [1], 1.3 in experiment [3], 3.5 in experiment [4] and 6.3 in experiment [6]. Moreover, the “Ratio of MFI (100 nM/0 nM)” value in experiment [2] was found to be 16.7.

B2: H4sH15482P (antibody, human IgG4 S228P, kappa)
heavy: QVQLVESGGGVVQPGRSLRLSCVASGFTFSSYGMHWVRQAPGKGLEWVAIIWYDGSNKYYADSVKGRFTISRDNSKNTQYLQMNSLRAEDTAVYYCASVATSGDFDYYGMDVWGQGTTVTVSSASTKGPSVFPLAPCSRSTSESTAALGCLVKDYFPEPVTVSWNSGALTSGVHTFPAVLQSSGLYSLSSVVTVPSSSLGTKTYTCNVDHKPSNTKVDKRVESKYGPPCPPCPAPPVAGPSVFLFPPKPKDTLMISRTPEVTCVVVDVSQEDPEVQFNWYVDGVEVHNAKTKPREEQFNSTYRVVSVLTVLHQDWLNGKEYKCKVSNKGLPSSIEKTISKAKGQPREPQVYTLPPSQEEMTKNQVSLTCLVKGFYPSDIAVEWESNGQPENNYKTTPPVLDSDGSFFLYSRLTVDKSRWQEGNVFSCSVMHEALHNHYTQKSLSLSLGK
light: EIVLTQSPATLSLSPGERTTLSCRASQRISTYLAWYQQKPGQAPRLLIYDASKRATGIPARFSGSGSGTGFTLTISSLEPEDFAVYYCQQRSNWPLTFGGGTKVEIKRTVAAPSVFIFPPSDEQLKSGTASVVCLLNNFYPREAKVQWKVDNALQSGNSQESVTEQDSKDSTYSLSSTLTLSKADYEKHKVYACEVTHQGLSSPVTKSFNRGEC
notes: H4sH = modified human IgG4 Fc; also called mAb1
Turning to B2, the EC50 was found to be 0.38 nM in experiment [1]; 1.2 nM in experiment [3]; 0.46 nM in experiment [4]; 1.15 nM in experiment [5]; 0.41 nM in experiment [6].
